Reference: patent US10568950B1, “Peptides, combination of peptides and scaffolds for use in immunotherapeutic treatment of various cancers” (Immatics Biotechnologies GmbH, priority 2015, dated 2020)

Legend:
[1] = tested on: HLA-A*24; experiment: MHC binding assay: UV-ligand exchange, beta2m ELISA (peptide exchange yield); design: species or system human; conditions: binding to HLA-A*24, β2m ELISA
Excerpt: (§1) Candidate peptides for T cell based therapies according to the present invention were further tested for their MHC binding capacity (affinity). The individual peptide-MHC complexes were produced by UV-ligand exchange, where a UV-sensitive peptide is cleaved upon UV-irradiation, and exchanged with the peptide of interest as analyzed. Only peptide candidates that can effectively bind and stabilize the peptide-receptive MHC molecules prevent dissociation of the MHC complexes. To determine the yield of the exchange reaction, an ELISA was performed based on the detection of the light chain (β2m) of stabilized MHC complexes. The assay was performed as generally described in Rodenko et al. (Rodenko et al., 2006).
(§2) 96 well MAXISorp plates (NUNC) were coated over night with 2 ug/ml streptavidin in PBS at room temperature, washed 4× and blocked for 1 h at 37° C. in 2% BSA containing blocking buffer. […] Peptide-MHC monomers of the UV-exchange reaction were diluted 100 fold in blocking buffer. Samples were incubated for 1 h at 37° C., washed four times, incubated with 2 ug/ml HRP conjugated anti-βm for 1 h at 37° C., washed again and detected with TMB solution that is stopped with […]. Absorption was measured at 450 nm. Candidate peptides that show a high exchange yield (preferably higher than 50%, most preferred higher than 75%) are generally preferred for a generation and production of antibodies or fragments thereof, and/or T cell receptors or fragments thereof, as they show sufficient avidity to the MHC molecules and prevent dissociation of the MHC complexes.

[2] = molecular target: HLA-A*02 (Homo sapiens, UniProt P04439, D140Y/D185E/D98H/E176V/E277Q/G131W/G231S/I119V/I121R/I166T/I218V/N151K/N90K/P208A/P217A/Q86G/Q94H/R138H/R169H); experiment: as above; conditions: binding to HLA-A*02, β2m ELISA
Excerpt: as §1, §2

Substance | Peptide exchange (MHC class I binding score, peptide exchange yield) [1] | Peptide exchange (MHC class I binding score, peptide exchange yield) [2]
154 (VYGVPTPHF; listed as Homo sapiens) [compound 154] | ++++ (>= 75% = ++++) | –
248 (AFPTFSVQL; listed as Homo sapiens) [compound 248] | ++++ (>= 75% = ++++) | –
271 (RFLMKSYSF; listed as Homo sapiens) [compound 271] | ++++ (>= 75% = ++++) | –
280 (TYNPNLQDKL; listed as Homo sapiens) [compound 280] | ++++ (>= 75% = ++++) | –
5 (SLFGQEVYC; listed as Homo sapiens) [compound 5] | – | +++ (50%-75% = +++)
25 (IQADDFRTL; listed as Homo sapiens) [compound 25] | – | ++ (20%-49% = ++)
82 (VLLRVLIL; listed as Homo sapiens) [compound 82] | – | ++ (20%-49% = ++)
79 (SLVPLQILL; listed as Homo sapiens) [compound 79] | – | ++++ (>= 75% = ++++)
16 (HLYNNEEQV; listed as Homo sapiens) [compound 16] | – | ++ (20%-49% = ++)
36 (KLYGIEIEV; listed as Homo sapiens) [compound 36] | – | ++++ (>= 75% = ++++)
339 (VLGPGPPPL; listed as Homo sapiens) [compound 339] | – | ++ (20%-49% = ++)
85 (STLDGSLHAV; listed as Homo sapiens) [compound 85] | – | +++ (50%-75% = +++)
10 (KTLDVFNIIL; listed as Homo sapiens) [compound 10] | – | ++ (20%-49% = ++)
6 (FLDPAQRDL; listed as Homo sapiens) [compound 6] | – | +++ (50%-75% = +++)
21 (SLYHRVLLY; listed as Homo sapiens) [compound 21] | – | ++++ (>= 75% = ++++)
52 (ELLSSIFFL; listed as Homo sapiens) [compound 52] | – | +++ (50%-75% = +++)
26 (KVDGVVIQL; listed as Homo sapiens) [compound 26] | – | +++ (50%-75% = +++)
328 (SVDSAPAAV; listed as Homo sapiens) [compound 328] | – | ++ (20%-49% = ++)
329 (FAWEPSFRDQV; listed as Homo sapiens) [compound 329] | – | ++ (20%-49% = ++)

Substance | Peptide exchange (MHC class I binding score, peptide exchange yield) [1] | Peptide exchange (MHC class I binding score, peptide exchange yield) [2]
28 (TLYSMDLMKV; listed as Homo sapiens) [compound 28] | – | +++ (50%-75% = +++)
42 (VLSPFILTL; listed as Homo sapiens) [compound 42] | – | +++ (50%-75% = +++)
333 (GTFLEGVAK; listed as Homo sapiens) [compound 333] | – | +++ (50%-75% = +++)
76 (ILLDESNFNHFL; listed as Homo sapiens) [compound 76] | – | +++ (50%-75% = +++)
77 (IVLSTIASV; listed as Homo sapiens) [compound 77] | – | +++ (50%-75% = +++)
27 (KVFGDLDQV; listed as Homo sapiens) [compound 27] | – | +++ (50%-75% = +++)
337 (KVLGKIEKV; listed as Homo sapiens) [compound 337] | – | +++ (50%-75% = +++)
47 (GLYQAQVNL; listed as Homo sapiens) [compound 47] | – | +++ (50%-75% = +++)
89 (YLVAHNLLL; listed as Homo sapiens) [compound 89] | – | +++ (50%-75% = +++)
31 (ALSDETKNNWEV; listed as Homo sapiens) [compound 31] | – | ++++ (>= 75% = ++++)
72 (GMIGFQVLL; listed as Homo sapiens) [compound 72] | – | +++ (50%-75% = +++)
69 (GIYDGILHSI; listed as Homo sapiens) [compound 69] | – | +++ (50%-75% = +++)
51 (LLLDGDFTL; listed as Homo sapiens) [compound 51] | – | +++ (50%-75% = +++)
80 (TLDEYLTYL; listed as Homo sapiens) [compound 80] | – | +++ (50%-75% = +++)
321 (SLWFKPEEL; listed as Homo sapiens) [compound 321] | – | +++ (50%-75% = +++)
71 (GLITVDIAL; listed as Homo sapiens) [compound 71] | – | +++ (50%-75% = +++)
45 (VLGPTPELV; listed as Homo sapiens) [compound 45] | – | +++ (50%-75% = +++)
29 (TLCNKTFTA; listed as Homo sapiens) [compound 29] | – | +++ (50%-75% = +++)
92 (LLRGPPVARA; listed as Homo sapiens) [compound 92] | – | ++ (20%-49% = ++)

Substance | Peptide exchange (MHC class I binding score, peptide exchange yield) [1] | Peptide exchange (MHC class I binding score, peptide exchange yield) [2]
14 (LLDHLSFINKI; listed as Homo sapiens) [compound 14] | – | ++ (20%-49% = ++)
330 (FLWPKEVEL; listed as Homo sapiens) [compound 330] | – | +++ (50%-75% = +++)
44 (GLLWQIIKV; listed as Homo sapiens) [compound 44] | – | ++ (20%-49% = ++)
35 (YVLPKLYVKL; listed as Homo sapiens) [compound 35] | – | ++ (20%-49% = ++)
334 (GRADALRVL; listed as Homo sapiens) [compound 334] | – | +++ (50%-75% = +++)
70 (GLFSQHFNL; listed as Homo sapiens) [compound 70] | – | +++ (50%-75% = +++)
336 (GLMDGSPHFL; listed as Homo sapiens) [compound 336] | – | ++ (20%-49% = ++)
74 (ILDETLENV; listed as Homo sapiens) [compound 74] | – | ++ (20%-49% = ++)
1 (PLWGKVFYL; listed as Homo sapiens) [compound 1] | – | ++ (20%-49% = ++)
81 (VLFLGKLLV; listed as Homo sapiens) [compound 81] | – | ++ (20%-49% = ++)
57 (VLISSTVRL; listed as Homo sapiens) [compound 57] | – | ++ (20%-49% = ++)
75 (ILDNVKNLL; listed as Homo sapiens) [compound 75] | – | +++ (50%-75% = +++)
59 (ALTKILAEL; listed as Homo sapiens) [compound 59] | – | +++ (50%-75% = +++)
4 (ELAEIVFKV; listed as Homo sapiens) [compound 4] | – | +++ (50%-75% = +++)
78 (LLWGHPRVA; listed as Homo sapiens) [compound 78] | – | +++ (50%-75% = +++)
12 (GLIYEETRGV; listed as Homo sapiens) [compound 12] | – | ++ (20%-49% = ++)
50 (EYALLYHTL; listed as Homo sapiens) [compound 50] | – | ++ (20%-49% = ++)
325 (RLLPKVQEV; listed as Homo sapiens) [compound 325] | – | ++ (20%-49% = ++)
